Each block holds one binder with its values, some of them ahead of it.
Legend:
[1] = molecular target: T1, DOS+SSB P>L (DOS+SSB with the proline to leucine mutation at amino acid 1718), epitope tagged (human, UniProt Q8N1I0 1-1966); assay: GST pull-down, lysate in SDS containing RIPA buffer
T1 construct: Used as lysate of transfected cells; also called DOS+SSB with proline mutation; DOS with the proline mutation
Protocol: (§1) In transient expression studies, with epitope tagged DOS constructs in both 293T cell and COS cells, a protein of the expected size is readily detected after cell lysis with buffers containing detergents, such as RIPA.
(§2) After incubating epitope tagged DOS lysates in SDS containing RIPA buffer with beads carrying GST-Crk-N terminal SH3 domain, DOS+SSB and DOS−SSB was “pulled down”. […] No binding to DOS−SSB was observed. […] The proline rich, C terminus of DOS engages with Src and Crk and the loss of Crk binding is seen in human cancer. Furthermore, no binding to SH3 domain of Abl and Crk-C terminus was observed.

[2] = molecular target: T2, DOS+SSB (human DOS protein of 1966 amino acids, with Src SH3 domain binding site), epitope tagged (human, UniProt Q8N1I0 1-1966); assay: pull-down with SH3 domains
T2 construct: Full-length isoform cloned in pcDNA3.1, transiently expressed in 293T or COS cells and used as cell lysate in RIPA buffer; also called DOCK 3; Deleted in Osteosarcoma
Protocol: as §1, §2

[3] = molecular target: GST-Src SH3 domain (UniProt P12931 84-145); assay: GST pull-down, lysate in SDS containing RIPA buffer
Protocol: as §1, §2

binding result [1]: no binding
B1: GST-Crk-N terminal SH3 domain (other, UniProt P46108 132-192, looked up)
chain: EEAEYVRALFDFNGNDEEDLPFKKGDILRIRDKPEEQWWNAEDSEGKRGMIPVPYVEKYRP
notes: domain: N terminal SH3 domain; GST fusion on beads for the pull-down; also called adaptor protein Crk; not shown: glutathione S-transferase (GST) fusion partner

binding result [2]: no binding
B2: SH3 domain of Crk-C terminus (other, UniProt P46108 235-296, looked up)
chain: NGPIYARVIQKRVPNAYDKTALALEVGELVKVTKINVSGQWEGECNGKRGHFPFTHVRLLDQ
notes: domain: SH3 domain of Crk-C terminus

binding result [3]: no binding
B3: DOS-SSB (alternatively spliced human DOS protein of 1928 amino acids, without Src SH3 domain binding site), epitope tagged (other, not shown: small tags and cut ends)
chain: MWIPTEHEKYGVVIASFRGTVPYGLSLEIGDTVQILEKCDGWYRGFALKNPNIKGIFPSSYVHLKNACVKNKGQFEMVIPTEDSVITEMTSTLRDWGTMWKQLYVRNEGDLFHRLWHIMNEILDLRRQVLVGHLTHDRMKDVKRHITARLDWGNEQLGLDLVPRKEYAMVDPEDISITELYRLMEHRHRKKDTPVQASSHHLFVQMKSLMCSNLGEELEVIFSLFDSKENRPISERFFLRLNRNGLPKAPDKPERHCSLFVDLGSSELRKDIYITVHIIRIGRMGAGEKKNACSVQYRRPFGCAVLSIADLLTGETKDDLILKVYMCNTESEWYQIHENIIKKLNARYNLTGSNAGLAVSLQLLHGDIEQIRREYSSVFSHGVSITRKLGFSNIIMPGEMRNDLYITIERGEFEKGGKSVARNVEVTMFIVDSSGQTLKDFISFGSGEPPASEYHSFVLYHNNSPRWSELLKLPIPVDKFRGAHIRFEFRHCSTKEKGEKKLFGFSFVPLMQEDGRTLPDGTHELIVHKCEENTNLQDTTRYLKLPFSKGIFLGNNNQAMKATKESFCITSFLCSTKLTQNGDMLDLLKWRTHPDKITGCLSKLKEIDGSEIVKFLQDTLDTLFGILDENSQKYGSKVFDSLVHIINLLQDSKFHHFKPVMDTYIESHFAGALAYRDLIKVLKWYVDRITEAERQEHIQEVLKAQEYIFKYIVQSRRLFSLATGGQNEEEFRCCIQELLMSVRFFLSQESKGSGALSQSQAVFLSSFPAVYSELLKLFDVREVANLVQDTLGSLPTILHVDDSLQAIKLQCIGKTVESQLYTNPDSRYILLPVVLHHLHIHLQEQKDLIMCARILSNVFCLIKKNSSEKSVLEEIDVIVASLLDILLRTILEITSRPQPSSSAMRFQFQDVTGEFVACLLSLLRQMTDRHYQQLLDSFNTKEELRDFLLQIFTVFRILIRPEMFPKDWTVMRLVANNVIITTVLYLSDALRKNFLNENFDYKIWDSYFYLAVIFINQLCLQLEMFTPSKKKKVLEKYGDMRVTMGCEIFSMWQNLGEHKLHFIPALIGPFLEVTLIPQPGLRNVMIPIFHDMMDWEQRRSGNFKQVEAKLIDKLDSLMSEGKGDETYRELFNSILLKKIERETWRESGVSLIATVTRLMERLLDYRDCMKMGEVDGKKIGCTVSLLNFYKTELNKEEMYIRYIHKLYDLHLKAQNFTEAAYTLLLYDELLEWSDRPLREFLTYPMQTEWQRKEHLHLTIIQNFDRGKCWENGIILCRKIAEQYESYYDYRNLSKMRMMEASLYDKIMDQQRLEPEFFRVGFYGKKFPFFLRNKEFVCRGHDYERLEAFQQRMLNEFPHAIAMQHANQPDETIFQAEAQYLQIYAVTPIPESQEVLQREGVPDNIKSFYKVNHIWKFRYDRPFHKGTKDKENEFKSLWVERTSLYLVQSLPGISRWFEVEKREVVEMSPLENAIEVLENKNQQLKTLISQCQTRQMQNINPLTMCLNGVIDAAVNGGVSRYQEAFFVKEYILSHPEDGEKIARLRELMLEQAQILEFGLAVHEKFVPQDMRPLHKKLVDQFFVMKSSLGIQEFSACMQASPVHFPNGSPRVCRNSAPASVSPDGTRVIPRRSPLSYPAVNRYSSSSLSSQASAEVSNITGQSESSDEVFNMQPSPSTSSLSSTHSASPNVTSSAPSSARASPLLSDKHKHSRENSCLSPRERPCSAIYPTPVEPSQRMLFNHIGDGALPRSDPNLSAPEKASPARHTTSVSPSPAGRSPLKGSVQSFTPSPVEYHSPGLISNSPVLSGSYSSGISSLSRCSTSETSGFENQVNEQSAPLPVPVPVPVPSYGGEEPVRKESKTPPPYSVYERTLRRPVPLPHSLSIPVTSEPPALPPKPLAARSSHLENGARRTDPGPRPRPLPRKVSQL
notes: Used as lysate of transfected cells
